# Test system: 5-hydroxy-2-oxopentanoate
# Assay: Enzyme assay, decarboxylase (step A5), aldehyde dehydrogenase linked reaction
# Type: biochemical
# Set-up: key: +: measureable activity detected in the assay; −: no measurable activity detected in the assay
# Conditions: BDO biosynthetic pathway step A5
# Procedure: (§1) Enzyme expression and crude lysate preparation. The enzymatic activity of each candidate enzyme is evaluated, first in E. coli and subsequently in C. glutamicum. It will be apparent to one of skill in the art that the expression and lysate preparations may need to be modified depending on the host cell and recombinant gene of interest.
# (§2) E. coli: E. coli strains transformed with expression clones, for example, pUC18 or MB4124 based clones having a medium strong constitutive promoter regulating the recombinant gene of interest, are grown aerobically in LB medium (Difco) containing the appropriate antibiotic(s). At an OD600 of 0.5, IPTG is added to a final concentration of 0.25 mM. The cultures are grown to a final OD600 of 1.5 at which time the cells are collected and harvested by centrifugation. Cell pellets are resuspended in BugBuster (Novagen) reagent containing benzonase and lysozyme. Alternatively, E. coli strains transformed with expression clones, are grown overnight aerobically at 37° C. in BHI containing the appropriate antibiotic(s). 300 μL of fresh overnight culture is used to inoculate 2.7 mL BHI containing 0.25 mM IPTG and the appropriate antibiotic. The cultures are grown aerobically for 4-5 hours at 37° C. at which time the cells are collected and harvested by centrifugation. Cell pellets are frozen at −80° C. for at least 15 minutes, then thawed and resuspended in BugBuster (Novagen) reagent. Lysis and lysate collection are performed according to the manufacturer's instructions and, for example, may involve use of a sonicator and/or French press. Cleared lysates are stored on ice until enzyme assays are performed.
# (§3) C. glutamicum: C. glutamicum strains transformed with MB4124 expression clones containing the recombinant gene of interest are grown aerobically in BHI broth supplemented with the proper antibiotic(s). At an OD600 of 0.5, IPTG is added to a final concentration of 0.25 mM. The cultures are grown to a final OD600 of 1.5 at which time the cells are collected and harvested by centrifugation. The pellet is washed once in one volume of water and resuspended in lysis buffer (1.0 ml 1.0 M HEPES buffer, pH 7.5, 0.5 ml 1M KOH, 10 μl 0.5M EDTA, protease inhibitor cocktail, water to 5 ml; the final pH will vary depending on the individual enzyme being tested) and one volume of 0.1 mm acid washed glass beads. The mixture is repeatedly alternately vortexed and held on ice for 15 seconds, eight times. After centrifugation for 5 min at 4,000 rpm, the supernatant lysate is removed and respun for 20 min at 10,000 rpm. Alternatively, C. glutamicum strains transformed with MB4124 expression clones containing the recombinant gene of interest are grown aerobically overnight in BHI broth supplemented with the proper antibiotic(s). Five mL of fresh overnight culture is used to inoculate 200 mL BHI containing 0.25 mM IPTG and the appropriate antibiotic. The cultures are grown aerobically at 30° C. for 5-7 hours at which time the cells are collected and harvested by centrifugation at 4° C. The pellet is resuspended in 15 mL ice cold 39 mM KH2PO4, 61 mM K2HPO4, 0.5 M KCl and lysed using a BioSpec BeadBeater and following the manufacturer's instructions. The lysate is centrifuged at 16,000 RPM at 4° C. for 30 minutes and the supernatant retained on ice as the extract.
# Protein Assays. Protein concentrations in lysates are determined according to the methods of Bradford et al. (Anal. Biochem. 72:248-254 [1976]) or by the method of Smith et al. (Anal. Biochem. 150(1):76-85 [1985]) and lysates are assayed according to the methods below.
# Enzyme Assays. Enzyme assays are performed on the cell lysates prepared above. The activity for each recombinant enzyme is compared to a lysate from a vector only control culture which is generated in a fashion identical to the recombinant enzyme lysate. […]
row,Molecule,Enzyme Assay
1,"UlaDEc: Enzyme candidate for BDO biosynthetic pathway step A5, SEQ ID NO. 68 (protein, listed as Escherichia coli) MSLPMLQVALDNQTMDSAYETTRLIAEEVDIIEVGTILCVGEGVRAVRDLKALYPHKIVLADAKIADAGKILSRMCFEANADWVTVICCADINTAKGALDVAKEFNGDVQIELTGYWTWEQAQQWRDAGIGQVVYHRSRDAQAAGVAWGEADITAIKRLSDMGFKVTVTGGLALEDLPLFKGIPIHVFIAGRSIRDAASPVEAARQFKRSIAELWG",−
2,"KgdMs: Enzyme candidate for BDO biosynthetic pathway step A5, SEQ ID NO. 69 (protein, listed as Mycobacterium smegmatis) MSSSPSPFGQNEWLVEEMYRKFRDDPSSVDPSWHEFLVDYSPEPTTDSASNGRTTTAAPVTPPTPAPAPAPEPKAAPKPAAKTEAKPAKPAKSATPAKGDESQILRGAAAAVVKNMNASLEVPTATSVRAIPAKLMIDNRVVINNHLKRTRGGKISFTHLLGYAIVQAVKKFPNMNRHFAVVDGKPTAITPAHTNLGLAIDLQGKDGNRSLVVAAIKRCETMRFGQFIAAYEDIVRRARDGKLTAEDFSGVTISLTNPGTLGTVHSVPRLMQGQGAIIGAGAMEYPAEFQGASEERIADLGIGKLITLTSTYDHRIIQGAESGDFLRTIHQLLLDDDFFDEIFRELGIPYEPVRWRTDNPDSIEDKNARVIELIAAYRNRGHLMADIDPLRLDNTRFRSHPDLDVNSHGLTLWDLDREFKVDGFAGVQRKKLRDILSVLRDAYCRHVGVEYTHILEPEQQRWIQERVETKHDKPTVAEQKYILSKLNAAEAFETFLQTKYVGQKRFSLEGAETVIPMMDAVIDQCAEHGLDEVVIAMPHRGRLNVLANIVGKPYSQIFSEFEGNLNPSQAHGSGDVKYHLGATGTYIQMFGDNDIEVSLTANPSHLEAVDPVLEGLVRAKQDLLDTGEEGSDNRFSVVPLMLHGDAAFAGQGVVAETLNLALLRGYRTGGTIHIVVNNQIGFTTAPTDSRSSEYCTDVAKMIGAPIFHVNGDDPEACAWVARLAVDFRQAFKKDVVIDMLCYRRRGHNEGDDPSMTQPYMYDVIDTKRGSRKAYTEALIGRGDISMKEAEDALRDYQGQLERVFNEVRELEKHEIEPSESVEADQQIPSKLATAVDKAMLQRIGDAHLALPEGFTVHPRVRPVLEKRREMAYEGRIDWAFAELLALGSLIAEGKLVRLSGQDTQRGTFTQRHAVIVDRKTGEEFTPLQLLATNPDGTPTGGKFLVYNSALSEFAAVGFEYGYSVGNPDAMVLWEAQFGDFVNGAQSIIDEFISSGEAKWGQLSDVVLLLPHGHEGQGPDHTSGRIERFLQLWAEGSMTIAMPSTPANYFHLLRRHGKDGIQRPLIVFTPKSMLRNKAAVSDIRDFTESKFRSVLEEPMYTDGEGDRNKVTRLLLTSGKIYYELAARKAKENREDVAIVRIEQLAPLPRRRLAETLDRYPNVKEKFWVQEEPANQGAWPSFGLTLPEILPDHFTGLKRISRRAMSAPSSGSSKVHAVEQQEILDTAFG",−
3,"YiaQEc: Enzyme candidate for BDO biosynthetic pathway step A5, SEQ ID NO. 67 (protein, listed as Escherichia coli) MSRPLLQLALDHSSLEAAQRDVTLLKDSVDIVEAGTILCLNEGLGAVKALREQCPDKIIVADWKVADAGETLAQQAFGAGANWMTIICAAPLATVEKGHAMAQRCGGEIQIELFGNWTLDDARDWHRIGVRQAIYHRGRDAQASGQQWGEADLARMKALSDIGLELSITGGITPADLPLFKDIRVKAFIAGRALAGAANPAQVAGDFHAQIDAIWGGARA",−
4,"ARO10Sc: Enzyme candidate for BDO biosynthetic pathway step A5, SEQ ID NO. 70 (protein, listed as Saccharomyces cerevisiae) MAPVTIEKFVNQEERHLVSNRSATIPFGEYIFKRLLSIDTKSVFGVPGDFNLSLLEYLYSPSVESAGLRWVGTCNELNAAYAADGYSRYSNKIGCLITTYGVGELSALNGIAGSFAENVKVLHIVGVAKSIDSRSSNFSDRNLHHLVPQLHDSNFKGPNHKVYHDMVKDRVACSVAYLEDIETACDQVDNVIRDIYKYSKPGYIFVPADFADMSVTCDNLVNVPRISQQDCIVYPSENQLSDIINKITSWIYSSKTPAILGDVLTDRYGVSNFLNKLICKTGIWNFSTVMGKSVIDESNPTYMGQYNGKEGLKQVYEHFELCDLVLHFGVDINEINNGHYTFTYKPNAKIIQFHPNYIRLVDTRQGNEQMFKGINFAPILKELYKRIDVSKLSLQYDSNVTQYTNETMRLEDPTNGQSSIITQVHLQKTMPKFLNPGDVVVCETGSFQFSVRDFAFPSQLKYISQGFFLSIGMALPAALGVGIAMQDHSNAHINGGNVKEDYKPRLILFEGDGAAQMTIQELSTILKCNIPLEVIIWNNNGYTIERAIMGPTRSYNDVMSWKWTKLFEAFGDFDGKYTNSTLIQCPSKLALKLEELKNSNKRSGIELLEVKLGELDFPEQLKCMVEAAALKRNKK",−
5,"LysAEc: Enzyme candidate for BDO biosynthetic pathway step A5, SEQ ID NO. 66 (protein, listed as Escherichia coli) MPHSLFSTDTDLTAENLLRLPAEFGCPVWVYDAQIIRRQIAALKQFDVVRFAQKACSNIHILRLMREQGVKVDSVSLGEIERALAAGYNPQTHPDDIVFTADVIDQATLERVSELQIPVNAGSVDMLDQLGQVSPGHRVWLRVNPGFGHGHSQKTNTGGENSKHGIWYTDLPAALDVIQRHHLQLVGIHMHIGSGVDYAHLEQVCGAMVRQVIEFGQDLQAISAGGGLSVPYQQGEEAVDTEHYYGLWNAAREQIARHLGHPVKLEIEPGRFLVAQSGVLITQVRSVKQMGSRHFVLVDAGFNDLMRPAMYGSYHHISALAADGRSLEHAPTVETVVAGPLCESGDVFTQQEGGNVETRALPEVKAGDYLVLHDTGAYGASMSSNYNSRPLLPEVLFDNGQARLIRRRQTIEELLALELL",−

# Test system: L-glutamate 5-semialdehyde (GSA)
# Assay: Enzyme assay, oxidoreductase (step A3), cell lysates
# Type: biochemical
# Set-up: key: +: measureable activity detected in the assay; −: no measurable activity detected in the assay
# Conditions: BDO biosynthetic pathway step A3
# Procedure: as §1, §2
# as §3, with “The lysate is centrifuged at 16,000 RPM at 4° C. for 30 minutes and the supernatant retained on ice as the extract.” left out
# Protein Assays. Protein concentrations in lysates are determined according to the methods of Bradford et al. (Anal. Biochem. 72:248-254 [1976]) or by the method of Smith et al. (Anal. Biochem. 150(1):76-85 [1985]) and lysates are assayed according to the methods below. […]
row,Molecule,Enzyme Assay
1,"HomAu: Enzyme candidate for BDO biosynthetic pathway step A3, SEQ ID NO. 24 (protein, listed as Arthrobacter aurescens) MSEMRTLKVALLGCGNVGAQVARILIDDAEALAARSGARLELSGIAVRNVDSPRDVELPRELFTTDADTLVKDADLVIELMGGIEPARSLILTAIQNGACVVTGNKALLAQDGPTLYEEADKAGVQLSYEAAVAGAIPILRPIRDSLSGDRITRVLGIVNGTTNFILDQMDSTGAQFADALAEAQRLGYAEADPTADVEGHDAAAKAAILASLSFHTRFSLDDVYCEGITKVSAADIASAKEAGFVIKLLAIAEKIDSSDNGSGISVRVHPTLLPREHPLAAVRGAFNAVFIEAENAGELMFYGQGAGGTPTASAVLGDLVSAARRLVLGGPGRTETTTGHVPALAIDASNTSYYIGLDVADQAGVLARIAHIFAENGVSIEIMRQTIHRDSASNVESAELKIVTHRASEAALAATVEAVKGLDVINSVTSVLRVEGV",−
2,"HomCg: Enzyme candidate for BDO biosynthetic pathway step A3, SEQ ID NO. 22 (protein, listed as Corynebacterium glutamicum) MTSASAPSFNPGKGPGSAVGIALLGFGTVGTEVMRLMTEYGDELAHRIGGPLEVRGIAVSDISKPREGVAPELLTEDAFALIEREDVDIVVEVIGGIEYPREVVLAALKAGKSVVTANKALVAAHSAELADAAEAANVDLYFEAAVAGAIPVVGPLRRSLAGDQIQSVMGIVNGTTNFILDAMDSTGADYADSLAEATRLGYAEADPTADVEGHDAASKAAILASIAFHTRVTADDVYCEGISNISAADIEAAQQAGHTIKLLAICEKFTNKEGKSAISARVHPTLLPVSHPLASVNKSFNAIFVEAEAAGRLMFYGNGAGGAPTASAVLGDVVGAARNKVHGGRAPGESTYANLPIADFGETTTRYHLDMDVEDRVGVLAELASLFSEQGISLRTIRQEERDDDARLIVVTHSALESDLSRTVELLKAKPVVKAINSVIRLERD",−
